From the DeepSol protein solubility set

test: soluble on expression in E. coli; label from the status in PepcDB or PDB records

Soluble on expression in E. coli, not soluble:
MAHHHHHHMSTTQAALFPFRHHWRVPVTLAINTTVPNGAPSATESGGCTQPQSPGEQAAAHAAVTPDGIDAVVTDFVFAQSGRRLLLVRGDSPPDLRLCLSEDSPNGPLSGALGAGIAVEASPLQQAHRALCTGAELIHHVSTLRDQQLEGHRPCDGDTRASALELCVAGYPQGHPLDRTWGATSAAYSAPAEAAATGSVATRDSSVAAARQRSLEFLRAFEEDFDAAEHAFTAAVRVAKRRACVVSAEKRSSDISVDDGTPSAASGEPRERARHLCTPQAVMPELKEPCRTLGRLGAVRRLWTSSSIYAPYVRAACIHRMLHEKVLLRSPSEPEHRRIRSGSFHGGAAAPVIVTQMITTAQGFTGYVDEIQRGLRAWAATAGGGEQPEPAGDGPQQQHPVHAAAPTALTPPISVIPGVLLPHPTDVHVLLRSLYYTKVIPSARMQKALEVYASELMIAWRQLADEPPRRKREPALQDDTFLQALTESNGSAATLEVSEDRVAQVEARVREVRRCASCRLTSVWLSETVDLLHDLQRHGQARLHLFTMFNDKVGVRVAQLLAAYDAPRGASAEQ
MAHHHHHHMTGWRQIVRCSICHLNRCAYPVTPALTDLKHLKHMWTLHGEAAPTADKQCLLLALAAEAGEQLAELNSRQAAAQAKAKEAQLAIAKHLGMLEMAVEASSYKIVDSTTPVNADSSANTAKLSLKIARGNNAGCSLTKAGEGNPFADDPLNEQNILNLKLTAATDVVKSLKETAISIRSASSNCPSDSTGKTGIKEALGSCNLGGSAEYEFTTAAATTGNAQSSVPVFKEESTTTNCGEVSGLSAEAMSPAQKLAKAICEAIKAKAGEGKTLRTATGETLSNRKTIQTFLRNCVPEFQKKN
MAHHHHHHMTSQTTTAVFSSDLQTFIVTKYDPLLSIVKELNDKLQNSEKDKYHLEKRIIKLEKQMVLLLEKLEVSDILFDNEEKEKKEEPRKNQKIESEENLLAPWLFSCQLGTPLSSLQVLLEFNVNNTIELNVKLWKREEDMWINVLEDISSNYNNYLPDSLSLLDLRKAARKCLLNICMNEILIVLRNVPGKSQALYNTTTMTLVAILASAIYEAWKRIELTDPVSLGRIVLVLDGMNCINKKREDVGSRLRAGNKKLKIEPLN
MAHHHHHHMTSTTQPKWTRLPIRTRPHRNPLAENSDNHPDCPAELQEQCTTLFPGMDNPVITLVDVGCAFGGMLFSLAPDFPDMCMLGLEIRPKVVEFAQNKVMKLREGAATDGTSHHYRNVWFEQLNVMKFGSNCFNKGQLQALFFCYPDPHWKRKNVRRRIISPGLVQEYAYWLKVGGFLFTVSDVEELERWMVTCLDGCPLFRQLSQEELAGNEMVRKMLDYAANSSEDAQRTTRKGLQKHYAVHVRVP
MAHHHHHHMTTERPCGERNGHTHSSSAADGTFDQPDTAVLLYGGLPPMPKPSVQRGEGSMEREFDQAAVSPSPVAAVAASSVVGGDTSPGSSPHIGVHEADDPTKNFDNSTEEEHMDLFISAMSPQNCVDRPQRRARGALMPPLPSPGEADAGAMMQSEMHTTPMTKTHTPDLRVTMYENQELRRELATVRASLRQALQTIETRELECVELHRLVDEMQAQLNGLKPEANLRPTQTDAQGNGEGSTRPEKSAFKLQATKDTTGPQIIGKYESKEEWRMTPSRELFAAEVKHDAHTEASTTTAIAAVKMNATDAPTTVEETISMGQLCEERDRLAKELAQTKIVVAEQETVLDRLGLRFPYPGALVAAARRTIPAFEPLRKSRKQKPGPLVVDRTTQMRGERAERRE
MAHHHHHHMVLPLPKLIQSNEGRVLYHVTNHPIRTIKKKIEGFFKYESLDNLNSEISVRQNFDELFVPLTHPARNIKDTFYLSENYVKHFSTLHNNLYTQLENTNGIYKYYLVTKFVHHHNILLKRTHMTAHLPDLLRRNYKNVIYTGSVYRRDEIDRFHFPIFHQTDGFLIRPDNFDVETDLKKNLEQLIRYLFDASDVQMKWEDNTSFPFTDPSYELYIRGESSKEIRTTGDDIGGESRWVEVLGCGKIKKEVIAMAMHAEDIRQIIEDEIARHDRGLLDELQSIETAVNEAAVNEAAVNEGATNEGAVNEGATNEAVARKSNVEWIYPNVPTPKDILDKLCTTTLNNRIEAQMNKFLKTIRYQGWAFGIGLERLAMLLYHIQDIRLFWSNDNRFIDQFEEGVITTFHPFSNFPPVEKDISFYITSQFKEDLFFQICRDVASENIEQVKKIDSYHNPKNNQTSVCYRITYRSHTQNLTHKTVNEMQSKIVQMLVKQCAVTIR
MAHHHHHHMVLRPRPLKHSLLRRGRINPAATHREVSLPILLTLVTCPIPRPMQVDRSLWAEGPLQAQHPHSPTHLSRQQVECMLLAGVPPRAFRLQDKPSKVSETAKEAPQGDEEGEPRAQHEADHTTKGGGDDFLDKNGNEKREPPAGSQTAPLPDGGKNAHYYFFLLLPARPATRCHLSADEVVEQRQKFSAMKQLPLGELSVTEVLLNAQPLAHSQGAWTS
MAHHHHHHMVVLKGGGTTYAVGNGRQMPWEEVPEGFKRRLAEQEEITPCVELRAIAQRCIEVEGFWAPNCVEATEQFHSCQAQHLAGCLPNWTHHNNNNINN
MAHHHHHHMYNFFASVNAPSTPPQKQPQVEPSLPPSACHHHVAASSLLDGMTAHNASLWLLNASQQRSLSYAHSGGGGDNLAGAEQEKRTAASQFYSTFPTAAAPPPSSGVQSLHGVGQQPAQQPHKHLCTSILQSYEHVGNSATPAPGLSSSLPLQEHQSSTWVTLRGGSLRMQLDGVPYSPFASTNASAASQPPDAAHGNEQYYDSTSHHRGYSASSASSIRHTLQVPASPQQQHQQQRLPISSSVWTAATPATAMPASLFASSSIRPLTNTTYPGYSCDWSGNALPTLPAAVPAPYVSGAALPVSSRSQTTYSVMPQPPQSGQPCSPTAHPATHSIMILHPTLDRGTAAILQASADAVNTPLHCLTDVKASEISGTTHYLEVVQGGGSVGDNSKHSYPSSIPIASRQPQPPLQQYYLQPTPQQHQQGQQLAAEQPPVHSCFLTNDGNMSHFVNHTTAAGAIIQPPSSMLSDIASLASLSSRTAGAGRSGAWQQPSTADMGSYKDQSSKLQLQQQQQQQQQQRRPVSAARQVTYTRGIPRRNRDRAVLFVGQLNYEATEADVSQVFSCYGKPLSVVVLKDKGKATKKGGAGGITGGSAATHRKVGGSAFVTYGTTLEADTAIMALHGRYNAKGDDVENVDNSKYLQVSYGQQTGLISAFGMMHAEKLHASKPENPIPLLVKDRTNGKL
MAHHHHHHMYRLVKFLYVNLLASTDLKRKYARAGDWAIVTGATEGIGYAMAMELARRGFNVCVVARTRSKLDAVVAEIEKKGVQGKAVVFDFSTADAQAYKRLFAELELLEVAILVNNVGVNYPYANYFDEADVEEDMKMLKVNCEATLRMTRFIVPRLKAKRSGGIVFLSSISATVPSPLLSAYAGTKSLSLSFGEGLAYELQQFGVDVLTVTPSLVVSRMTQGVSSRKPKETLFMVNAAAMAHQTLNKLGIVTRTAGHINHALLNSCLRILPESLVANKILTMHQAIKRRAERSRTQ
MAHHHHHHMYSSVRPYKILQKVKRNDNNSNSNSNNNSNSNSNSSSIRNPPNEAKKEPTEREDSGKKKPVEKKKKYEDLKYYECNRKSLSTKSQEAEGRDKITKYNNKTNQHADNNHVKKLQSEKVLKKKEDMLVTLLKKEQSSVHNKKIIIRHLPPTLSEDNFFESFPSNLKDELDYYYYVNGCVPKNQGGDITHSRMYLSFKDDLKTKEFIKTQHGKFFYDSNGGKFKAMVSFAPYQTIIHKNKLDEMNNTLESDAYFLKCCEEMNNPQEPVKKDDDNADLSNVIKEDGVILPPLVVALRKKLKNKKLK
MAHHHHHHSLSSSLANRNIYTVSRLNSEVRLLLENEMGIVWLVGEISNFSAPVSGHWYLTLKDSQAQVKCAMFKGNNRLVNFKPQNGQQVLVKARLSLYEPRGDYQIILESMQPEGDGRLQQQFEQLKMQLAAEGLFAQTRKKPLPENPRCVGIITSRTGAALHDILHVLKRRDPNLPVVIYPTLVQGEEAAIQIAQAIGRANTRAECDVLIVGRGGGSLEDLWCFNHEIVARTIAASEIPIISAVGHEIDVTIADFVADVRAPTPSAAAELVSRDHRHKQQALHQWQAKLASTMRHYLAQQETQFARLQHKLDKQHPQARLERQQQQLDELSLRLEQKMQQRLATQQQRWDRLSHKIELHSPIHLIRQQRFNLIQQEQRINQSIQRYLIQSRHQLALLSEKLDAVSPLATLARGYSVTRTTQGELVRQSAQVKPGDTLVTQLMDGEILSTVNSREG
MAHNYLLEIGLEEIPAHVVTPSIKQLVQKVTAFLKENRLTYDSIDHFSTPRRLAIRINGLGDQQPDIEEDAKGPARKIAQDADGNWTKAAIGFTRGQGLTVDDITFKTIKGTDYVYVHKLIKGKMTKEILTGLKEVVESINFPTMMKWANFDFKYVRPIRWLVSILDEEVLPFSILDVTAGRRTEGHRFLGEAVELANAEEYEAKLHDQFVIVDADERKQLISNQIKAIAESNRWNVTPNPGLLEEVNNLVEWPTAFNGGFDEKYLAIPEEVLITSMRDHQRFFFVRDQAGKLLPNFISVRNGNEEFIENVVRGNEKVLTARLEDAAFFYEEDQKHDINYYVDRLKKVSFHDKIGSMYEKLQRVNSIAKVIGNTLNLNQTELDDIDRATMIYKFDLVTGMVGEFSELQGVMGEKYAQLNGENQAVAQAIREHYMPNSAEGDLPESVTGAVVALADKFDNIFSFFSAGMIPSGSNDPYALRRHAYGIVRILNSRDWQLDLNQFKSQVKTELAENGTAFGVDVDQNFDQVLNFFNDRIKQLLDHQKISHDIVETVLTGNNHD

Soluble on expression in E. coli, soluble:
MAHHHHHHMTSTLTNSNRINIPAVCRLRERNTNKTVGSGVLVAQGLLLTSATAIPTQSRATHIVATFFEGTKKSAVDVQLQPQRYYFASRYPPEMDYCLISCEEAPLLNVTPVHMALTGKGWAPVEEGDVVLIVEHPIGDVAGTAAVPLDGKATFSSTLSATGDGDFDSVRAPYTEQKRFEEVLRCRGNVSFLKSNGSWRTAGCPAFNEHGQLVGLQSQSRADGEGVVNRILSLISIVKHLFANVQLPHLPQEDVTFEDVWDTWYVTNDITRILAILANFKGKSMAQQVTWRLCELTAKPQLVKSIASNGGIEVILQNLSLFSSDEKLSESGLRALWNVSIGEEAHLATIIKKEGVQTILDVVESFPANETVLEFGAVLLHNIAGCRAAPNFSEAHGARALKALYPGFQQFRESVVLQKFALSFFATLARLNEDFARDLVQQHVIEHITHLVEEKPKQIFLMEIVVGFVAELAQYPQTVELMCSNTPQYAAASMSYLIDLLIHIILEYKDLDSLLVSGNRALWGLGNVPTCRGIILENPRGIDALRISLPPLIASTHR
MAHHHHHHMWSPSNKRDSLINSDDTFFPFLFHFPGSHPRQMLSSFFASRSRGSWIPAVDISEQDDGYILVADLPEVKKEDLRVYTESSSIICISGNRKHILKQDEHQLLVAERGAGRFERCFDLPTSVDSSKIKASFNDQQLNLSIPKLRNSKSGASNSVTID
MAHHHHNSGPLEFTVSANTNPATDAVRESILANPGFGKYYTDHMVSIDYTVDEGWHNAQVIPYGPIQLDPSAIVLHYGQEIFEGLKAYRWADGSIVSFRPEANAARLQSSARRLAIPELPEEVFIESLRQLIAVDEKWVPPAGGEESLYLRPFVIATEPGLGVRPSNEYRYLLIASPAGAYFKGGIKPVSVWLSHEYVRASPGGTGAAKFGGNYAASLLAQAQAAEMGCDQVVWLDAIERRYVEEMGGMNLFFVFGSGGSARLVTPELSGSLLPGITRDSLLQLATDAGFAVEERKIDVDEWQKKAGAGEITEVFACGTAAVITPVSHVKHHDGEFTIADGQPGEITMALRDTLTGIQRGTFADTHGWMARLN
